We go through one sequence from article PMC7156744, “CdbA is a DNA-binding protein and c-di-GMP receptor important for nucleoid organization and segregation in Myxococcus xanthus” (Nature Communications, 2020).

Changes are numbered by the printed parent chain.

The target in data set [1] is T1, CdbA K8A/S10A-His6 K59A;S61A (Myxococcus xanthus DK1622) (UniProt Q1D489).
T1 sequence: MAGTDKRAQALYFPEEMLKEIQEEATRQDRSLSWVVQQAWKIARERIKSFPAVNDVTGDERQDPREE
In words: EMSA. As to conditions: 10x buffer: 380 mM HEPES, 380 mM NaCl, 50 mM MgCl2, 50% glycerol, 10 mM DTT, 15 ng/ul poly(dI-dC), 50 ng probe, 30 C 30 min, 10% PAGE 1x TBE 4 C, pH not …. (In general: A gel shift assay detects complexes by their altered migration in electrophoresis.)

For data set [2], the target named is T2, CdbA R27A/R30A-His6 R78A;R81A (Myxococcus xanthus DK1622) (UniProt Q1D489).
T2 sequence: T1 sequence with A8K, A10S, R27A, R30A
In words: EMSA. As to conditions: 10x buffer: 380 mM HEPES, 380 mM NaCl, 50 mM MgCl2, 50% glycerol, 10 mM DTT, 15 ng/ul poly(dI-dC), 50 ng probe, 30 C 30 min, 10% PAGE 1x TBE 4 C, pH not ….

Consider “ACTTGGGTCTCCGGGGCGGATTCGGGGTGACGACCTGAACACACCTGGGCCGTTATCCGACAGACTCCCAAGTGGGTCAACGGTTTCCAAGGACTCATTCCGAGGTCGCACGGTCCGTCCCCGTGCTCGTCCAGTTGCACGTAAGCTGTGCAACCATGCGCGAAAAAGGAAACGCCCCGGACTCCACGAGGAAGTCCGGGGCGCTTCGGAAAGAGGGACCGCCTAGAGAAATCTCCAGGCGGGCCCGTGG (double strand) [cdbAB promoter]”, for which the binding entry in data set [1] and in data set [2] was “no binding” in each case.
